Source: US20230382979A1 (ADAPTIVE BIOTECHNOLOGIES, published 2023)

Experiments:
[1] = molecular target: SARS-CoV-2 spike protein, B1.1.7 (alpha variant), borne on lentiviral pseudovirus (SARS-CoV-2, B1.1.7); assay: cell-based or functional assay
[2] = molecular target: T1, SARS-CoV-2 spike protein on live virus, strain USA-WA1/2020 (SARS-CoV-2, WA01/2020 strain, UniProt P0DTC2 14-1273); assay: cell-based or functional assay
[3] = molecular target: T2, Receptor-binding domain (RBD) of the SARS-CoV-2 spike protein, WA01/2020 strain (SARS-CoV-2, WA01/2020 strain, UniProt P0DTC2 319-541); assay: dose-response ELISA on WT RBD
[4] = molecular target: T2, Receptor-binding domain (RBD) of the …; assay: dose-response ELISA on coated antigen
[5] = molecular target: T2, Receptor-binding domain (RBD) of the …; assay: ELISA, antibody blocks RBD binding to human ACE2
[6] = molecular target: T2, Receptor-binding domain (RBD) of the …; assay: SPR (Biacore 8K), antigen immobilized, antibody injected
[7] = molecular target: SARS-CoV-2 spike protein, B1.351 (beta variant), borne on lentiviral pseudovirus (SARS-CoV-2, B1.351); assay: cell-based or functional assay
[8] = molecular target: T1, SARS-CoV-2 spike protein on live virus, …; assay: cell-based or functional assay; remark: listed apart in the source
[9] = molecular target: T2, Receptor-binding domain (RBD) of the …; assay: ELISA, antibody at 0.1 ug/mL
[10] = molecular target: SARS-CoV-2 spike protein on live virus, B1.351 (beta variant) (SARS-CoV-2, B1.351); assay: cell-based or functional assay
[11] = molecular target: T2, Receptor-binding domain (RBD) of the …; assay: SPR (Biacore), footnote to the Kd of < 4.7* pM

B1: antibody 2619 (antibody, V domains shown)
VH: EVQLVESGGGLVQPGRSLRLSCAASGFTFDDYAMHWVRQAPGKGLEWVSGISWNSGSIGYADSVKGRFTLSRDNAKNSLFLQMDSLRAEDTALYYCAKDVSYRSGSYYRFWGGSGSWGQGTLVTVSS
VL: DIQMTQSPSSLSASVGDRVTITCRASLSIRSYLNWYQQKPGKPPKLLIYAASSLQSGVPSRFSGSGSGTDFTLTISSLQPEDFATYYCQQSYSTPLTFGGGTKVEIK
Pseudo Neut, B1.1.7 IC50 (pM) [1]: ~7 pM | Live Neut, WA1/2020 IC50 (pM) [2]: 118 pM | EC50 (read off the curve) [3]: ~0.02 µg/mL | EC50 [4]: 0.037 nM | IC50 [5]: 0.479 nM | Kd [6]: 0.105 nM

B2: antibody 2729 (antibody, V domains shown)
VH: QVTLKESGPVLVKPTETLTLTCTVSGFSLSNARMGVSWIRQPPGKALEWLAHIFSNDEKSYSTYLKSRLTISKDSSKSQVVLTMTIMDPVDTATYYCARTAGRYSSRWGHYYYYMDVWGKGTTVTVSS
VL: NFMLTQPHSVSESPGKTVTISCTGSNGSIASNFMQWYQQRPGSAPTIVIYEDNQRPSGVPDRFSGSIDGSSNSASLTISGLKTEDEADYYCQSYDSSDSDLGVFGGGTKLTVL
Pseudo Neut, B1.1.7 IC50 (pM) [1]: 93 pM | Pseudo Neut, B1.351 IC50 (pM) [7]: 793 pM | Live Neut, WA1/2020 IC50 (pM) [2]: 111 pM | IC50, live virus micro-neutralization WA1/2020 [8]: 0.272 nM | EC50 (read off the curve) [3]: ~0.01 µg/mL | EC50 [4]: 0.037 nM | IC50 [5]: ~0.66 nM | Kd [6]: 0.015 nM

B3: antibody 2788 (antibody, V domains shown)
VH: QVQLVQSGAEVKKPGASVKVSCKVSGYTLIELSMHWVRQAPGKGLEWMGGFDPEGAETIYAQKFQGRVTMTEDTSTDTAYMELSSLRSDDTAVYYCATGPAVFAANWFDPWGQGTLVTVSS
VL: QSALTQPPSASGSPGQSVTISCTGTSSDIGNYNNVSWYQQHPGKAPKLMIYDVIKRPSGVPDRFSGSKSGNTASLTVSGLQAEDEADYYCSSYAGKSYVFGTGTKVTVL
Live Neut, WA1/2020 IC50 (pM) [2]: 117 pM | binding result [9]: no binding (tested: 0.1 ug/mL)

B4: antibody 1589 (antibody, V domains shown)
VH: EVQLVESGGGLIQVGGSLRLSCAASGLTVTSNYMNWVRQGPGKGLEWVSLIYSGGTTYYADSVKGRFTISRDDSKNTLYLQMNSLRAEDTAVYYCARPIVGARSGMDVWGQGTAVTVSS
VL: DIQMTQSPSSLSASVGDRVTITCQASQDINKYLNWYQQKPGKAPKLLIYDASNLETGVPSRFSGSGSGTDFTFTISSLQPEDLATYYCHQFDNLPGTFGGGTKVEIK
Pseudo Neut, B1.1.7 IC50 (pM) [1]: 133 pM | Pseudo Neut, B1.351 IC50 (pM) [7]: 137 pM | Live Neut, WA1/2020 IC50 (pM) [2]: 43 pM | Live Neut, B1.351 IC50 (pM) [10]: 167 pM | IC50, live virus micro-neutralization WA1/2020 [8]: 0.0667 nM | EC50 [4]: 0.036 nM | IC50 [5]: 0.52 nM | koff [11]: < 1e-06 s⁻¹ | Kd [6]: < 0.0047 nM

B5: antibody 2866 (antibody, V domains shown)
VH: QVQLVQSGAEVKKPGSSVKVSCKASGGTFSSYSISWVRQAPGQGLEWMGGLAPIFHTPNYAQKFQGRVTITADESTSTAYMELSSLRSEDTAVYYCARVAGAGWGVYGAFDYWGQGTLVTVSS
VL: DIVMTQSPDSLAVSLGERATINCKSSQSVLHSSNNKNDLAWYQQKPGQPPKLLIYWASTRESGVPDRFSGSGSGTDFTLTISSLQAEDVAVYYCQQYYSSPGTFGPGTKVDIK
Live Neut, WA1/2020 IC50 (pM) [2]: 649 pM | binding result [9]: no binding (tested: 0.1 ug/mL)

B6: antibody 2793 (antibody, V domains shown)
VH: QVQLVQSGAEVKKPGASVKVSCKVSGFTLPELSIHWVRQAPGKGLEWMGGFDPEDAKTIYAQKFQGRVTMTEDTSTDIAYMELNSLRSDDTAVYYCATGSPFGVVGNWLDPWGQGTLVTVSS
VL: QSALTQPASVSGSPGQSITISCTGTSSDVGDFSYVSWYQQHPGKAPKLMIYEVTKRPSGVSNRFSGSKSGNTASLTISGLQTEDEADYYCTSYTSSRLVLFGGGTKLTVL
Live Neut, WA1/2020 IC50 (pM) [2]: 77 pM | binding result [9]: no binding (tested: 0.1 ug/mL)

B7: antibody 2854 (antibody, V domains shown)
VH: QVQLVQSGAEVKKPGSSVKVSCKASGGTFSSYAISWVRQAPGQGLEWMGGIIPIFHTANYAQKFQGRVTITADESTSTTYVELSSLRSEDTAMYYCATLPITIFGEEYSFDNWGQGTLVTVSS
VL: DVVMTQSPLSLPVTLGQPASISCRSSQSLVHSDGNTYLSWFQQRPGQSPRRLIYKVSDRDSGVPDRFSGSGSGTDFTLKISRVEAEDVGIYYCMQGTHWPPLTFGGGTKVEIK
Live Neut, WA1/2020 IC50 (pM) [2]: 164 pM | binding result [9]: no binding (tested: 0.1 ug/mL)
